Laboratory results reported in IntAct's records for PubMed 23393263.

B1: Protein E6 (Human papillomavirus type 16), P03126 (parent)
chain: MHQKRTAMFQDPQERPRKLPQLCTELQTTIHDIILECVYCKQQLLRREVYDFAFRDLCIVYRDGNPYAVCDKCLKFYSKISEYRHYCYSLYGTTLEQQYNKPLCDLLIRCINCQKPLCPEEKQRHLDKKQRFHNIRGRWTGRCMSCCRSSRTRRETQL
B2: Protein E6 (Bovine papillomavirus type 1), P06931 (parent)
chain: MDLKPFARTNPFSGLDCLWCREPLTEVDAFRCMVKDFHVVIREGCRYGACTICLENCLATERRLWQGVPVTGEEAELLHGKTLDRLCIRCCYCGGKLTKNEKHRHVLFNEPFCKTRANIIRGRCYDCCRHGSRSKYP

What was measured:
[1] = variants of: B1; settings: with ube3a_human UBE3A
[2] = variants of: B1; settings: with ube3a_human UBE3A; remark: listed apart in the source
paxi_human PXN, P49023 [3] = variants of: B2; settings: with paxi_human PXN
paxi_human PXN, P49023, sequence (P49023 whole entry): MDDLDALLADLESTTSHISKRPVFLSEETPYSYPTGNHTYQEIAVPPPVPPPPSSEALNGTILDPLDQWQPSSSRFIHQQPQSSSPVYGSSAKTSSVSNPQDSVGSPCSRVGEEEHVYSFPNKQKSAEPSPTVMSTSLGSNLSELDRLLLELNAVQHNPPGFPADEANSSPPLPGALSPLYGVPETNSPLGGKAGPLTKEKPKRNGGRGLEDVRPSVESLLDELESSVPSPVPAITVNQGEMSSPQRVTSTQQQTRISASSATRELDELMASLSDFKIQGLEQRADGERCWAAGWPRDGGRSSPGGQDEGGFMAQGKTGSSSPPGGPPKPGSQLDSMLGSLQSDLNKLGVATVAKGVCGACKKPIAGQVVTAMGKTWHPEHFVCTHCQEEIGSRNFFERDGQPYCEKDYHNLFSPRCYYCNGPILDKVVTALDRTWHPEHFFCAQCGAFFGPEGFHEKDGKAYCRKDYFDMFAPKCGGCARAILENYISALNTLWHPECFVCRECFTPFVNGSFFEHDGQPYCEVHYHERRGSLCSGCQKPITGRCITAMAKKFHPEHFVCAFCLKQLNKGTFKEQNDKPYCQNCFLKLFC

paxi_human PXN, P49023 [4] = variants of: B2; settings: with paxi_human PXN; remark: listed apart in the source

Variant	effect of a mutation on the interaction [1]	effect of a mutation on the interaction [2]	effect of a mutation on the interaction (paxi_human PXN, P49023 [3])	effect of a mutation on the interaction (paxi_human PXN, P49023 [4])
R17A	decreasing interaction strength	–	–	–
R62A	decreasing interaction strength	–	–	–
L57A	disrupting interaction strength	–	–	–
L57E	–	disrupting interaction strength	–	–
R138A	disrupting interaction strength	decreasing interaction strength	–	–
R109A	disrupting interaction strength	decreasing interaction strength	–	–
S78R	decreasing interaction strength	–	–	–
R121G	–	–	decreasing interaction strength	disrupting interaction strength
R89A	–	–	decreasing interaction strength	disrupting interaction strength
R89L	–	–	decreasing interaction strength	disrupting interaction strength
R116G	–	–	decreasing interaction strength	disrupting interaction strength
R116D	–	–	decreasing interaction strength	disrupting interaction strength
L58S	–	–	decreasing interaction strength	disrupting interaction strength
F37S	–	–	decreasing interaction strength	disrupting interaction strength
